Measured values published in patent US20030059827A1 (published 2003).

Target: T1, GFP (non-modified EGFP) (UniProt P42212 1-238 = GFP)
T1 construct: also called GFP alone; original GFP
Assay: affinity chromatography on Ni-NTA-bound PDZ, Western blot with anti-GFP
Description: To carry out the affinity chromatography assay, bacterially-expressed PDZ domains and EGFP derivatives were produced and fused to the different target peptides. The original and modified PDZ domains were expressed in E. coli XL1-Blue as fusions with 6XHis. The EGFP-peptides fusions were expressed in E. coli BL21 as described in Sambrook et al, 1989, Molecular Cloning: A Laboratory Manual, 2nd Ed., Vol 3. The bacterially expressed PDZ domains were then bound to nickel resin (Ni-NTA agarose, Quiagen) as described by the manufacturer. The resin-bound PDZ domains were then incubated with E.coli extracts made from bacteria expressing each of the target peptide-GFP fusions and washed four times with 50 mM NaH₂PO₄, 300 mM NaCl; 20 mM Imidazole; 0,1% of TritonX-100 to remove any unbound proteins. The bound proteins were eluted using 50 mM NaH₂PO₄, 300 mM NaCl; 200 mM Imidazole and analyzed by Western blot using antibodies against GFP to determine the presence of EGFP fused to the target peptide.

B1: PDZ-3, third PDZ domain of mouse PSD-95 (amino acids 302-402) fused to polyhistidine (6XHis), from plasmid pQEPDZ-3 (other)
chain: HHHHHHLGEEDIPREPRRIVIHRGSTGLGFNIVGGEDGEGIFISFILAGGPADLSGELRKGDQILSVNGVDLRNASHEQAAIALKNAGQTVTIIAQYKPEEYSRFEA
notes: range 302-402; also called original PDZ domain; the original PDZ
B1: no binding.
